The star is where a group is joined. Octanoyl = CCCCCCCC(=O)*; Octyl = CCCCCCCC*
Target: human growth hormone secretagogue receptor type 1a (human, UniProt Q92847 1-366)
Assay: cell-based or functional assay

human growth hormone secretagogue receptor type 1a, sequence (Q92847 whole entry): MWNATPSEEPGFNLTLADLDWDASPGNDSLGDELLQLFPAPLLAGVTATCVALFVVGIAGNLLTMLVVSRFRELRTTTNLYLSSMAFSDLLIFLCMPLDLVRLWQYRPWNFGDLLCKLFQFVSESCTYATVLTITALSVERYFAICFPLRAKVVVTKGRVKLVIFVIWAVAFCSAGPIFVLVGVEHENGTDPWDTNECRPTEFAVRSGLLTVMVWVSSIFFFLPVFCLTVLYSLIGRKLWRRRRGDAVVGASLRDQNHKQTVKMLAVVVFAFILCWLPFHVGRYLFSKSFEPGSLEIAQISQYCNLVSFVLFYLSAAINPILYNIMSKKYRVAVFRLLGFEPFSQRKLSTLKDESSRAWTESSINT

B1: H-PS-S(O-octyl)-FLSPEHSRVSSRKESKSPPAKLSPR-NH2 (peptide)
peptide: H-PSS(Octyl)FLSPEHSRVSSRKESKSPPAKLSPR-NH2
SMILES: CCCCCCCCOC[C@H](NC(=O)[C@H](CO)NC(=O)[C@@H]1CCCN1)C(=O)N[C@@H](Cc1ccccc1)C(=O)N[C@@H](CC(C)C)C(=O)N[C@@H](CO)C(=O)N1CCC[C@H]1C(=O)N[C@@H](CCC(=O)O)C(=O)N[C@@H](Cc1c[nH]cn1)C(=O)N[C@@H](CO)C(=O)N[C@@H](CCCNC(=N)N)C(=O)N[C@H](C(=O)N[C@@H](CO)C(=O)N[C@@H](CO)C(=O)N[C@@H](CCCNC(=N)N)C(=O)N[C@@H](CCCCN)C(=O)N[C@@H](CCC(=O)O)C(=O)N[C@@H](CO)C(=O)N[C@@H](CCCCN)C(=O)N[C@@H](CO)C(=O)N1CCC[C@H]1C(=O)N1CCC[C@H]1C(=O)N[C@@H](C)C(=O)N[C@@H](CCCCN)C(=O)N[C@@H](CC(C)C)C(=O)N[C@@H](CO)C(=O)N1CCC[C@H]1C(=O)N[C@@H](CCCNC(=N)N)C(N)=O)C(C)C
EC50 (nM); Ca2+ induction in HEK293 cells stably expressing the human ghrelin receptor: 0.296 nM

B2: H-PS-S(O-octyl)-FLSPEHSRVSSRKESSSPPAKLSPR-NH2 (peptide)
peptide: H-PSS(Octyl)FLSPEHSRVSSRKESSSPPAKLSPR-NH2
SMILES: CCCCCCCCOC[C@H](NC(=O)[C@H](CO)NC(=O)[C@@H]1CCCN1)C(=O)N[C@@H](Cc1ccccc1)C(=O)N[C@@H](CC(C)C)C(=O)N[C@@H](CO)C(=O)N1CCC[C@H]1C(=O)N[C@@H](CCC(=O)O)C(=O)N[C@@H](Cc1c[nH]cn1)C(=O)N[C@@H](CO)C(=O)N[C@@H](CCCNC(=N)N)C(=O)N[C@H](C(=O)N[C@@H](CO)C(=O)N[C@@H](CO)C(=O)N[C@@H](CCCNC(=N)N)C(=O)N[C@@H](CCCCN)C(=O)N[C@@H](CCC(=O)O)C(=O)N[C@@H](CO)C(=O)N[C@@H](CO)C(=O)N[C@@H](CO)C(=O)N1CCC[C@H]1C(=O)N1CCC[C@H]1C(=O)N[C@@H](C)C(=O)N[C@@H](CCCCN)C(=O)N[C@@H](CC(C)C)C(=O)N[C@@H](CO)C(=O)N1CCC[C@H]1C(=O)N[C@@H](CCCNC(=N)N)C(N)=O)C(C)C
EC50 (nM); Ca2+ induction in HEK293 cells stably expressing the human ghrelin receptor: 0.454 nM

B3: H-PS-S(O-octyl)-FLSPEHSRPSSR-NH2 (peptide)
peptide: H-PSS(Octyl)FLSPEHSRPSSR-NH2
SMILES: CCCCCCCCOC[C@H](NC(=O)[C@H](CO)NC(=O)[C@@H]1CCCN1)C(=O)N[C@@H](Cc1ccccc1)C(=O)N[C@@H](CC(C)C)C(=O)N[C@@H](CO)C(=O)N1CCC[C@H]1C(=O)N[C@@H](CCC(=O)O)C(=O)N[C@@H](Cc1c[nH]cn1)C(=O)N[C@@H](CO)C(=O)N[C@@H](CCCNC(=N)N)C(=O)N1CCC[C@H]1C(=O)N[C@@H](CO)C(=O)N[C@@H](CO)C(=O)N[C@@H](CCCNC(=N)N)C(N)=O
EC50 (nM); Ca2+ induction in HEK293 cells stably expressing the human ghrelin receptor: 0.341 nM

B4: H-PS-S(O-octyl)-FLSPEHSRVSSRPESSSPPAKLSPR-NH2 (peptide)
peptide: H-PSS(Octyl)FLSPEHSRVSSRPESSSPPAKLSPR-NH2
SMILES: CCCCCCCCOC[C@H](NC(=O)[C@H](CO)NC(=O)[C@@H]1CCCN1)C(=O)N[C@@H](Cc1ccccc1)C(=O)N[C@@H](CC(C)C)C(=O)N[C@@H](CO)C(=O)N1CCC[C@H]1C(=O)N[C@@H](CCC(=O)O)C(=O)N[C@@H](Cc1c[nH]cn1)C(=O)N[C@@H](CO)C(=O)N[C@@H](CCCNC(=N)N)C(=O)N[C@H](C(=O)N[C@@H](CO)C(=O)N[C@@H](CO)C(=O)N[C@@H](CCCNC(=N)N)C(=O)N1CCC[C@H]1C(=O)N[C@@H](CCC(=O)O)C(=O)N[C@@H](CO)C(=O)N[C@@H](CO)C(=O)N[C@@H](CO)C(=O)N1CCC[C@H]1C(=O)N1CCC[C@H]1C(=O)N[C@@H](C)C(=O)N[C@@H](CCCCN)C(=O)N[C@@H](CC(C)C)C(=O)N[C@@H](CO)C(=O)N1CCC[C@H]1C(=O)N[C@@H](CCCNC(=N)N)C(N)=O)C(C)C
EC50 (nM); Ca2+ induction in HEK293 cells stably expressing the human ghrelin receptor: 0.525 nM

H-PSS(Octanoyl)FLSPEHQRVQQRKESKKPPAKLQPR-OH [H-PS-S(O-octanoyl)-FLSPEHQRVQQRKESKKPPAKLQPR-OH]
EC50 (nM); Ca2+ induction in HEK293 cells stably expressing the human ghrelin receptor: 0.298 nM

B5: H-PS-S(O-octyl)-FLSPEHSRPSSRPESSSPPAKLSPR-NH2 (peptide)
peptide: H-PSS(Octyl)FLSPEHSRPSSRPESSSPPAKLSPR-NH2
SMILES: CCCCCCCCOC[C@H](NC(=O)[C@H](CO)NC(=O)[C@@H]1CCCN1)C(=O)N[C@@H](Cc1ccccc1)C(=O)N[C@@H](CC(C)C)C(=O)N[C@@H](CO)C(=O)N1CCC[C@H]1C(=O)N[C@@H](CCC(=O)O)C(=O)N[C@@H](Cc1c[nH]cn1)C(=O)N[C@@H](CO)C(=O)N[C@@H](CCCNC(=N)N)C(=O)N1CCC[C@H]1C(=O)N[C@@H](CO)C(=O)N[C@@H](CO)C(=O)N[C@@H](CCCNC(=N)N)C(=O)N1CCC[C@H]1C(=O)N[C@@H](CCC(=O)O)C(=O)N[C@@H](CO)C(=O)N[C@@H](CO)C(=O)N[C@@H](CO)C(=O)N1CCC[C@H]1C(=O)N1CCC[C@H]1C(=O)N[C@@H](C)C(=O)N[C@@H](CCCCN)C(=O)N[C@@H](CC(C)C)C(=O)N[C@@H](CO)C(=O)N1CCC[C@H]1C(=O)N[C@@H](CCCNC(=N)N)C(N)=O
EC50 (nM); Ca2+ induction in HEK293 cells stably expressing the human ghrelin receptor: 0.642 nM

B6: H-PS-S(octanoyl)-FLSPEHQSVQQRKESKKPPAKLQPR-NH2 (peptide)
peptide: H-PSS(Octanoyl)FLSPEHQSVQQRKESKKPPAKLQPR-NH2
SMILES: CCCCCCCC(=O)OC[C@H](NC(=O)[C@H](CO)NC(=O)[C@@H]1CCCN1)C(=O)N[C@@H](Cc1ccccc1)C(=O)N[C@@H](CC(C)C)C(=O)N[C@@H](CO)C(=O)N1CCC[C@H]1C(=O)N[C@@H](CCC(=O)O)C(=O)N[C@@H](Cc1c[nH]cn1)C(=O)N[C@@H](CCC(N)=O)C(=O)N[C@@H](CO)C(=O)N[C@H](C(=O)N[C@@H](CCC(N)=O)C(=O)N[C@@H](CCC(N)=O)C(=O)N[C@@H](CCCNC(=N)N)C(=O)N[C@@H](CCCCN)C(=O)N[C@@H](CCC(=O)O)C(=O)N[C@@H](CO)C(=O)N[C@@H](CCCCN)C(=O)N[C@@H](CCCCN)C(=O)N1CCC[C@H]1C(=O)N1CCC[C@H]1C(=O)N[C@@H](C)C(=O)N[C@@H](CCCCN)C(=O)N[C@@H](CC(C)C)C(=O)N[C@@H](CCC(N)=O)C(=O)N1CCC[C@H]1C(=O)N[C@@H](CCCNC(=N)N)C(N)=O)C(C)C
EC50 (nM); Ca2+ induction in HEK293 cells stably expressing the human ghrelin receptor: 0.149 nM

B7: H-PS-S(octanoyl)-FLSPEHQRVQQSKESKKPPAKLQPR-NH2 (peptide)
peptide: H-PSS(Octanoyl)FLSPEHQRVQQSKESKKPPAKLQPR-NH2
SMILES: CCCCCCCC(=O)OC[C@H](NC(=O)[C@H](CO)NC(=O)[C@@H]1CCCN1)C(=O)N[C@@H](Cc1ccccc1)C(=O)N[C@@H](CC(C)C)C(=O)N[C@@H](CO)C(=O)N1CCC[C@H]1C(=O)N[C@@H](CCC(=O)O)C(=O)N[C@@H](Cc1c[nH]cn1)C(=O)N[C@@H](CCC(N)=O)C(=O)N[C@@H](CCCNC(=N)N)C(=O)N[C@H](C(=O)N[C@@H](CCC(N)=O)C(=O)N[C@@H](CCC(N)=O)C(=O)N[C@@H](CO)C(=O)N[C@@H](CCCCN)C(=O)N[C@@H](CCC(=O)O)C(=O)N[C@@H](CO)C(=O)N[C@@H](CCCCN)C(=O)N[C@@H](CCCCN)C(=O)N1CCC[C@H]1C(=O)N1CCC[C@H]1C(=O)N[C@@H](C)C(=O)N[C@@H](CCCCN)C(=O)N[C@@H](CC(C)C)C(=O)N[C@@H](CCC(N)=O)C(=O)N1CCC[C@H]1C(=O)N[C@@H](CCCNC(=N)N)C(N)=O)C(C)C
EC50 (nM); Ca2+ induction in HEK293 cells stably expressing the human ghrelin receptor: 0.168 nM

Source: patent US9657062B2, “Ghrelin analogues” (Zealand Pharma A/S, priority 2012, dated 2017)
